Laboratory results reported in paper PMC10397247.
Each block holds one binder with its values, some of them ahead of it.

Tests used:
[1] = target: T1, P5SC2; experiment: two-hybrid library CC1; details: mean of both orientations;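 further: natural log of median RNA to DNA barcode read ratio; higher means stronger binding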
T1 chain: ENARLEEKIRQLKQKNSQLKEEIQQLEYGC

[2] = target: T2, P5; experiment: two-hybrid library CC1; details: mean of both orientations;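 further: natural log of median RNA to DNA barcode read ratio; higher means stronger binding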
T2 chain: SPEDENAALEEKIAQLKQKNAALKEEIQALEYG

[3] = target: T3, P6; experiment: two-hybrid library CC1; details: mean of both orientations;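 further: natural log of median RNA to DNA barcode read ratio; higher means stronger binding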
T3 chain: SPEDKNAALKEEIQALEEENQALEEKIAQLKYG

[4] = target: T4, P7mS; experiment: two-hybrid library CC1; details: mean of both orientations;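 further: natural log of median RNA to DNA barcode read ratio; higher means stronger binding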
T4 chain: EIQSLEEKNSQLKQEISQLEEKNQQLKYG

[5] = target: T5, P6SC1; experiment: two-hybrid library CC1; details: mean of both orientations
T5 chain: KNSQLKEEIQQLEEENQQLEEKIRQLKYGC

[6] = target: T6, P8; experiment: two-hybrid library CC1; details: mean of both orientations
T6 chain: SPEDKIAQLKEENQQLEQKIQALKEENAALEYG

[7] = target: T7, P5SC1; experiment: two-hybrid library CC1; details: mean of both orientations
T7 chain: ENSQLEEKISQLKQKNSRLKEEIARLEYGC

[8] = target: T8, P6mS; experiment: two-hybrid library CC1; details: mean of both orientations
T8 chain: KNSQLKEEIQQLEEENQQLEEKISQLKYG

[9] = target: T9, P5mS; experiment: two-hybrid library CC1; details: mean of both orientations
T9 chain: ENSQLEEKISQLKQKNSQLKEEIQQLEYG

[10] = target: T10, P4mS; experiment: two-hybrid library CC1
T10 chain: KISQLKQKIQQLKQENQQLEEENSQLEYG

[11] = target: T11, P7; experiment: two-hybrid library CC1; details: mean of both orientations
T11 chain: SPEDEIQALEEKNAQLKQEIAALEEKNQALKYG

[12] = target: T12, P8mS; experiment: two-hybrid library CC1; details: mean of both orientations
T12 chain: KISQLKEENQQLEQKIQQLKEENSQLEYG

[13] = target: T13, P6SC2; experiment: two-hybrid library CC1; details: mean of both orientations
T13 chain: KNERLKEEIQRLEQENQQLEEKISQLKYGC

[14] = target: T14, P9; experiment: two-hybrid library CC1; details: mean of both orientations
T14 chain: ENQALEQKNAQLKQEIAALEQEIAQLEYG

[15] = target: T15, P7mSN; experiment: two-hybrid library CCNG1
T15 chain: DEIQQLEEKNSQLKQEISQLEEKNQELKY

[16] = target: T16, P6mSN; experiment: two-hybrid library CCNG1
T16 chain: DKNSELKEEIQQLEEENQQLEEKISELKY

[17] = target: T17, P9mSN; experiment: two-hybrid library CCNG1
T17 chain: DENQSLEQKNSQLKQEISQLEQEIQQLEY

[18] = target: T18, P8mSN; experiment: two-hybrid library CCNG1
T18 chain: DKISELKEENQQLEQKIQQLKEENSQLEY

[19] = target: T19, P5mSN; experiment: two-hybrid library CCNG1
T19 chain: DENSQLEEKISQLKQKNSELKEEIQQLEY

[20] = target: T20, P3mSN; experiment: two-hybrid library CCNG1
T20 chain: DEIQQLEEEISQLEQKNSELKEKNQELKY

[21] = target: T21, 4H3409-AA; experiment: two-hybrid library CCmax
T21 chain: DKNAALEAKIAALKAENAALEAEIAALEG

[22] = target: T22, 4H87-AA; experiment: two-hybrid library CCmax
T22 chain: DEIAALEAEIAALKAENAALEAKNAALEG

[23] = target: T23, 4H3940-AA; experiment: two-hybrid library CCmax; details: mean of both orientations
T23 chain: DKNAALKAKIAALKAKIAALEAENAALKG

[24] = target: T24, 4H816-AA; experiment: two-hybrid library CCmax; details: mean of both orientations
T24 chain: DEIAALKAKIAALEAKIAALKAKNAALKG

[25] = target: T25, 4H3595-AA; experiment: two-hybrid library CCmax
T25 chain: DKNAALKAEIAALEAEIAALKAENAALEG

[26] = target: T26, 4H233-AA; experiment: two-hybrid library CCmax
T26 chain: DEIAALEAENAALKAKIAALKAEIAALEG

[27] = target: T27, 4H390-AA; experiment: two-hybrid library CCmax; details: mean of both orientations
T27 chain: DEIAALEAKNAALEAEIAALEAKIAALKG

[28] = target: T28, 4H2705-AA; experiment: two-hybrid library CCmax; details: mean of both orientations
T28 chain: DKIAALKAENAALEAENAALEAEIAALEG

[29] = target: T29, 4H2687-AA; experiment: two-hybrid library CCmax; details: mean of both orientations
T29 chain: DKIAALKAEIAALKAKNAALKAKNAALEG

[30] = target: T30, 4H2873-AA; experiment: two-hybrid library CCmax; details: mean of both orientations
T30 chain: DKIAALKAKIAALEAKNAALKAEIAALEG

[31] = target: T31, 4H278-AA; experiment: two-hybrid library CCmax; details: mean of both orientations
T31 chain: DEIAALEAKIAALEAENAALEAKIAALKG

[32] = target: T32, 4H510-AA; experiment: two-hybrid library CCmax; details: mean of both orientations
T32 chain: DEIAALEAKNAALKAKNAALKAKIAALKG

[33] = target: T33, 4H2758-AA; experiment: two-hybrid library CCmax; details: mean of both orientations
T33 chain: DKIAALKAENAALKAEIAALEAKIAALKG

[34] = target: T34, 4H2985-AA; experiment: two-hybrid library CCmax; details: mean of both orientations
T34 chain: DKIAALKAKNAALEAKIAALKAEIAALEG

[35] = target: T35, 4H775-AA; experiment: two-hybrid library CCmax; details: mean of both orientations
T35 chain: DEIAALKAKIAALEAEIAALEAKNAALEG

[36] = target: T36, 4H2512-AA; experiment: two-hybrid library CCmax; details: mean of both orientations
T36 chain: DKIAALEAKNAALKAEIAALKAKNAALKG

[37] = target: T37, 4H3625-AA; experiment: two-hybrid library CCmax; details: mean of both orientations
T37 chain: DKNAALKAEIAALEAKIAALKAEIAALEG

[38] = target: T38, 4H2646-AA; experiment: two-hybrid library CCmax; details: mean of both orientations
T38 chain: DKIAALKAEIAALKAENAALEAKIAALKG

[39] = target: T39, 4H3134-AA; experiment: two-hybrid library CCmax; details: mean of both orientations
T39 chain: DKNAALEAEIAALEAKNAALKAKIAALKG

Binder: KISQLKQKIQQLKQENQQLEEENSQLEYG [P4mS]
interaction score [1]: -2.82 | interaction score [2]: -3.02 | interaction score [3]: -2.75 | interaction score [4]: -2.94 | interaction score [5]: -2.65 | interaction score [6]: -2.9 | interaction score [7]: -2.92 | interaction score [8]: -3 | interaction score [9]: -2.9 | interaction score [10]: -3.22 | interaction score [11]: -2.78 | interaction score [12]: -2.9 | interaction score [13]: -2.64 | interaction score [14]: -2.65

interaction score [15]: -0.239 | interaction score [16]: -0.522 | interaction score [17]: -0.0425 | interaction score [18]: -0.172 | interaction score [19]: -0.781 | interaction score [20]: -0.0204
Binder: DEIQQLEEEISQLEQKNSELKEKNQELKY [P3mSN]

interaction score [21]: 1.43 | interaction score [22]: -1.84 | interaction score [23]: -1.57 | interaction score [24]: -0.563 | interaction score [25]: 0.594 | interaction score [26]: 1.43 | interaction score [27]: 2.39 | interaction score [28]: 1 | interaction score [29]: -1.45 | interaction score [30]: -0.478 | interaction score [31]: 1.7 | interaction score [32]: -1.24 | interaction score [33]: 1.97 | interaction score [34]: 0.682 | interaction score [35]: -1.43 | interaction score [36]: 0.368 | interaction score [37]: -0.183 | interaction score [38]: 1.88 | interaction score [39]: -0.974
Binder: DEIAALEAENAALKAKIAALKAEIAALEG [4H233-AA]
